In the array DNA melting data of Ke et al.:

Assay: melting temperature; melt of duplexes
Settings: sodium 0.0675 M; strand 1 µM

Substance: CGACGTGCATTATGTGCTG+CAGCACATCCGGCACGTCG ((((((((...((((((((+))))))))...))))))))
- Tm: 47.3 °C

Substance: CGACGTGCACTATGTGCTG+CAGCACATCCTGCACGTCG (((((((((..((((((((+))))))))..)))))))))
- Tm: 44.9 °C

Substance: CGACGTGCCGCATGTGCTG+CAGCACATGTTGCACGTCG ((((((((..(((((((((+)))))))))..))))))))
- Tm: 54.5 °C

Substance: CGACGTGCCACATGTGCTG+CAGCACATGCGGCACGTCG (((((((((.(((((((((+))))))))).)))))))))
- Tm: 60.2 °C

Substance: CGACGTGCCCTATGTGCTG+CAGCACATCGGGCACGTCG ((((((((((.((((((((+)))))))).))))))))))
- Tm: 58.7 °C

Substance: CGACGTGCAGTATGTGCTG+CAGCACATGATGCACGTCG (((((((((..((((((((+))))))))..)))))))))
- Tm: 55 °C

Substance: CGACGTGCGTTATGTGCTG+CAGCACATTGGGCACGTCG ((((((((...((((((((+))))))))...))))))))
- Tm: 50.3 °C

Substance: CGACGTGCACTATGTGCTG+CAGCACATTACGCACGTCG ((((((((...((((((((+))))))))...))))))))
- Tm: 43.6 °C

Substance: CGACGTGCCACATGTGCTG+CAGCACATGACGCACGTCG ((((((((..(((((((((+)))))))))..))))))))
- Tm: 49.5 °C

Substance: CGACGTGCGGGATGTGCTG+CAGCACATATGGCACGTCG ((((((((...((((((((+))))))))...))))))))
- Tm: 50.8 °C

Substance: CGACGTGCTGGATGTGCTG+CAGCACATGCTGCACGTCG ((((((((.(.((((((((+)))))))).).))))))))
- Tm: 54.8 °C

Substance: CGACGTGCCTGATGTGCTG+CAGCACATAGAGCACGTCG ((((((((...((((((((+))))))))...))))))))
- Tm: 51.2 °C

Substance: CGACGTGCAGAATGTGCTG+CAGCACATTCAGCACGTCG ((((((((.((((((((((+)))))))))).))))))))
- Tm: 57.9 °C

Substance: CGACGTGCTACATGTGCTG+CAGCACATTCGGCACGTCG ((((((((...((((((((+))))))))...))))))))
- Tm: 49.1 °C

Substance: CGACGTGCATAATGTGCTG+CAGCACATTGGGCACGTCG ((((((((..(((((((((+)))))))))..))))))))
- Tm: 54.2 °C

Substance: CGACGTGCAACATGTGCTG+CAGCACATTCTGCACGTCG (((((((((..((((((((+))))))))..)))))))))
- Tm: 50.1 °C

Substance: CGACGTGCGCAATGTGCTG+CAGCACATGAGGCACGTCG ((((((((...((((((((+))))))))...))))))))
- Tm: 52.4 °C

Substance: CGACGTGCCAGATGTGCTG+CAGCACATTAGGCACGTCG (((((((((..((((((((+))))))))..)))))))))
- Tm: 56.2 °C

Substance: CGACGTGCACTATGTGCTG+CAGCACATCCAGCACGTCG ((((((((...((((((((+))))))))...))))))))
- Tm: 42.6 °C

Substance: CGACGTGCTTAATGTGCTG+CAGCACATCATGCACGTCG ((((((((.(.((((((((+)))))))).).))))))))
- Tm: 50.3 °C

Substance: CGACGTGCTATATGTGCTG+CAGCACATAATGCACGTCG ((((((((..(((((((((+)))))))))..))))))))
- Tm: 53 °C

Substance: CGACGTGCATGATGTGCTG+CAGCACATAGGGCACGTCG ((((((((...((((((((+))))))))...))))))))
- Tm: 50.1 °C

Substance: CGACGTGCGCTATGTGCTG+CAGCACATTGCGCACGTCG ((((((((((.((((((((+)))))))).))))))))))
- Tm: 61 °C

Substance: CGACGTGCCAAATGTGCTG+CAGCACATGCGGCACGTCG (((((((((..((((((((+))))))))..)))))))))
- Tm: 57.1 °C

Substance: CGACGTGCAAAATGTGCTG+CAGCACATACAGCACGTCG ((((((((...((((((((+))))))))...))))))))
- Tm: 49.7 °C

Substance: CGACGTGCGCCATGTGCTG+CAGCACATGGCGCACGTCG (((((((((((((((((((+)))))))))))))))))))
- Tm: 68.7 °C

Substance: CGACGTGCCGTATGTGCTG+CAGCACATCACGCACGTCG ((((((((...((((((((+))))))))...))))))))
- Tm: 51.2 °C

Substance: CGACGTGCGGTATGTGCTG+CAGCACATAAGGCACGTCG ((((((((..(((((((((+)))))))))..))))))))
- Tm: 53 °C

Substance: CGACGTGCTCGATGTGCTG+CAGCACATGCTGCACGTCG ((((((((...((((((((+))))))))...))))))))
- Tm: 47 °C

Substance: CGACGTGCTGTATGTGCTG+CAGCACATTGCGCACGTCG ((((((((...((((((((+))))))))...))))))))
- Tm: 47.9 °C

Substance: CGACGTGCCGGATGTGCTG+CAGCACATAGGGCACGTCG (((((((((..((((((((+))))))))..)))))))))
- Tm: 55.9 °C

Substance: CGACGTGCACAATGTGCTG+CAGCACATGAAGCACGTCG ((((((((...((((((((+))))))))...))))))))
- Tm: 49.9 °C

Substance: CGACGTGCGGAATGTGCTG+CAGCACATATGGCACGTCG ((((((((...((((((((+))))))))...))))))))
- Tm: 50.8 °C

Substance: CGACGTGCGTGATGTGCTG+CAGCACATACTGCACGTCG ((((((((...((((((((+))))))))...))))))))
- Tm: 51.1 °C

Substance: CGACGTGCTAGATGTGCTG+CAGCACATTTCGCACGTCG ((((((((.(.((((((((+)))))))).).))))))))
- Tm: 50.1 °C

Substance: CGACGTGCGGGATGTGCTG+CAGCACATCGTGCACGTCG ((((((((..(((((((((+)))))))))..))))))))
- Tm: 56.2 °C

Substance: CGACGTGCCACATGTGCTG+CAGCACATTCAGCACGTCG ((((((((...((((((((+))))))))...))))))))
- Tm: 48.9 °C

Substance: CGACGTGCGCCATGTGCTG+CAGCACATGTCGCACGTCG (((((((((.(((((((((+))))))))).)))))))))
- Tm: 59.7 °C

Substance: CGACGTGCCTAATGTGCTG+CAGCACATGAAGCACGTCG ((((((((.(.((((((((+)))))))).).))))))))
- Tm: 51 °C

Substance: CGACGTGCGGCATGTGCTG+CAGCACATCAAGCACGTCG ((((((((...((((((((+))))))))...))))))))
- Tm: 53.6 °C

Substance: CGACGTGCCGCATGTGCTG+CAGCACATGAGGCACGTCG (((((((((.(((((((((+))))))))).)))))))))
- Tm: 62.6 °C

Substance: CGACGTGCGGTATGTGCTG+CAGCACATGTCGCACGTCG (((((((((..((((((((+))))))))..)))))))))
- Tm: 57.1 °C

Substance: CGACGTGCGTGATGTGCTG+CAGCACATCTGGCACGTCG ((((((((..(((((((((+)))))))))..))))))))
- Tm: 55.7 °C

Substance: CGACGTGCTATATGTGCTG+CAGCACATGCAGCACGTCG (((((((((..((((((((+))))))))..)))))))))
- Tm: 52.5 °C

Substance: CGACGTGCCTGATGTGCTG+CAGCACATCAAGCACGTCG ((((((((.((((((((((+)))))))))).))))))))
- Tm: 56.6 °C

Substance: CGACGTGCTTAATGTGCTG+CAGCACATGTGGCACGTCG ((((((((...((((((((+))))))))...))))))))
- Tm: 51.9 °C

Substance: CGACGTGCCGTATGTGCTG+CAGCACATTGAGCACGTCG ((((((((...((((((((+))))))))...))))))))
- Tm: 49.8 °C

Substance: CGACGTGCAGAATGTGCTG+CAGCACATAAAGCACGTCG ((((((((...((((((((+))))))))...))))))))
- Tm: 50.5 °C

Substance: CGACGTGCCGGATGTGCTG+CAGCACATTCGGCACGTCG ((((((((((.((((((((+)))))))).))))))))))
- Tm: 62.4 °C

Substance: CGACGTGCGAGATGTGCTG+CAGCACATTACGCACGTCG (((((((((..((((((((+))))))))..)))))))))
- Tm: 55.4 °C

Substance: CGACGTGCCGAATGTGCTG+CAGCACATAGAGCACGTCG ((((((((...((((((((+))))))))...))))))))
- Tm: 49.9 °C

Substance: CGACGTGCACAATGTGCTG+CAGCACATATCGCACGTCG ((((((((...((((((((+))))))))...))))))))
- Tm: 44.6 °C

Substance: CGACGTGCGCTATGTGCTG+CAGCACATATCGCACGTCG (((((((((.(((((((((+))))))))).)))))))))
- Tm: 56 °C

Substance: CGACGTGCGAAATGTGCTG+CAGCACATACGGCACGTCG ((((((((...((((((((+))))))))...))))))))
- Tm: 49 °C

Substance: CGACGTGCAGAATGTGCTG+CAGCACATTTCGCACGTCG ((((((((..(((((((((+)))))))))..))))))))
- Tm: 53.5 °C

Substance: CGACGTGCTACATGTGCTG+CAGCACATAGTGCACGTCG ((((((((...((((((((+))))))))...))))))))
- Tm: 48.1 °C

Substance: CGACGTGCCCTATGTGCTG+CAGCACATAATGCACGTCG ((((((((..(((((((((+)))))))))..))))))))
- Tm: 48.8 °C

Substance: CGACGTGCCTCATGTGCTG+CAGCACATCATGCACGTCG ((((((((.(.((((((((+)))))))).).))))))))
- Tm: 47.2 °C

Substance: CGACGTGCTGAATGTGCTG+CAGCACATTACGCACGTCG ((((((((..(((((((((+)))))))))..))))))))
- Tm: 52.7 °C

Substance: CGACGTGCGGTATGTGCTG+CAGCACATGAAGCACGTCG ((((((((...((((((((+))))))))...))))))))
- Tm: 55.3 °C

Substance: CGACGTGCCTTATGTGCTG+CAGCACATGCAGCACGTCG ((((((((...((((((((+))))))))...))))))))
- Tm: 49 °C

Substance: CGACGTGCCAAATGTGCTG+CAGCACATACCGCACGTCG ((((((((...((((((((+))))))))...))))))))
- Tm: 47.3 °C

Substance: CGACGTGCACTATGTGCTG+CAGCACATTATGCACGTCG (((((((((..((((((((+))))))))..)))))))))
- Tm: 46.2 °C

Substance: CGACGTGCGCGATGTGCTG+CAGCACATTGAGCACGTCG ((((((((.(.((((((((+)))))))).).))))))))
- Tm: 56.8 °C

Substance: CGACGTGCGGAATGTGCTG+CAGCACATTGGGCACGTCG ((((((((..(((((((((+)))))))))..))))))))
- Tm: 53.5 °C

Substance: CGACGTGCTTGATGTGCTG+CAGCACATAGAGCACGTCG (((((((((..((((((((+))))))))..)))))))))
- Tm: 54.2 °C

Substance: CGACGTGCAAAATGTGCTG+CAGCACATTACGCACGTCG ((((((((..(((((((((+)))))))))..))))))))
- Tm: 51.5 °C

Substance: CGACGTGCCTTATGTGCTG+CAGCACATTACGCACGTCG ((((((((.(.((((((((+)))))))).).))))))))
- Tm: 47.7 °C

Substance: CGACGTGCATGATGTGCTG+CAGCACATTCTGCACGTCG (((((((((..((((((((+))))))))..)))))))))
- Tm: 52.9 °C

Substance: CGACGTGCCAAATGTGCTG+CAGCACATGACGCACGTCG ((((((((...((((((((+))))))))...))))))))
- Tm: 47.5 °C

Substance: CGACGTGCACGATGTGCTG+CAGCACATCCAGCACGTCG ((((((((..(((((((((+)))))))))..))))))))
- Tm: 50.6 °C

Substance: CGACGTGCGACATGTGCTG+CAGCACATATGGCACGTCG ((((((((.(.((((((((+)))))))).).))))))))
- Tm: 50.2 °C
